B1: Ams1 (full length) of the Ams1-Nbr1 fusion protein (enzyme, S. pombe, UniProt Q9UT61 2-1077, looked up)
chain: TLFPVLNNTPVGKQVDSIYESRLDQFLSEGQYRDFNLPSVYDHARIDNPSGDVNNDLSKGFVDLKVYRVPDLSRPSFNEVVGHKKFDETASKGDTFGPSWATFWFEVHIRLPKSWAKYEQVIFQWNCDNEGLVYSQDGVPLQAFSGSERTDFILPDSWKTTEDTFYIEMACNGMFGTGAGSQIAPPDPNRYFTLTKADLVAPNLPAMALAYDFLLMQQCVKQLPSNCWQKYKARQICNDIMNTFHPNDLSTINECRNLAKAFLGNDIDSEAVFEKNNDKANVFAIGHCHIDTAWLWPFAETRRKIVRSWATQMNIMDRYPEYQFVCSQALQYLWLKEDHPDVFEKLKEYVNQNKFIPIGGSWVEHDTNIPNGESLIRQFLLGQHFFEKEFGVRCRTFWLPDTFGYSSQIPQICRLCGMDRFLTQKLSWNNINSFPTSTFNWVALDGSQVICHMPPANTYTADTNVNDVLHSIDQHKNLVNDQAGLLVFGIGDGGGGPTPEMLEKLRRCKGIANTVGYLPNVKLGNTVDEFFDGILKRTNAGQTLPSWNGELYFEFHRGTYTTQAELKKLMRKVEIALHDAEYVSTLASIFSKDYSYPKESLQDLWRDTLLCQFHDVLPGSCIEMVYKDAIPIMSKVLKNTEALLWQAIEQLGFKKASSSDNKEQLCLLNTLPWNVRGVITETEENKLVYFESCDGKGILTAAHTSLKHPAAAYQKDDNFILVNDHLRVTIAPNGLILSLFDLHKEREILDLKSGKNHAGANQYVLFEDTPLSWQAWDTEVFSLEKYEVLDKGKVSIKESGPLRASVVVDIPISELSHMKATISLEGYNDCSEFTGVNFTCEVDWHESCKFLKVEFPVDIHSEFASYETQFGITKRPTHYNTSWDVAKFEVCHQKFADYSDFTYGVSVLNDCKYGFSTHGNLMRLSLLRSPKQPDAHADMGKHTIRYAVYPHSKPLDSSTVRAAHKFNSNFRLLTRASDTANLDIFDAFQLVGEPNVILSHIKMAEKGKSIILRVYESLGGKSRARLVIKSLTVASVTKCNGLEEDLEELCTLKSNDYYEVPIELRAFEIATFKVNL
notes: S. pombe alpha-mannosidase Ams1 (SPAC513.05), full length; the first methionine is removed in vivo, T2 is the most N-terminal residue in the density map; residues 2-1077 are in the model; written as a molecule of its own for the pair; also called Ams1_1; Ams1_3; source: S. pombe, Pnmt1 promoter, purified (GFP-Trap beads, released by 3C protease)
B2: Nbr1(53-180) of the Ams1-Nbr1 fusion protein (domain or fragment, S. pombe, UniProt Q9P792 53-180, looked up)
chain: PTLRSSSVACNTCLKIIRNDSFHCTKCFDFDVCRDCYAKQAFLHPCPKPHFVLVRSSIPSVASLTCSVNSMSVSPQSNFMYAICDHCEQPIHNVRYKCSVCDDYDICESCLTDNSHSNTHAFVRITKA
notes: S. pombe Nbr1 residues 53-180 (ZZ1 and ZZ2); residues 59-108 are in the model; written as a molecule of its own for the pair; also called Nbr1-ZZ1; ZZ1; source: S. pombe, Pnmt1 promoter, purified (GFP-Trap beads, released by 3C protease); not shown: MBP, C-terminal, kept; GFP, C-terminal, cleaved

What was measured:
[1] = biological target: the molecule itself; test: cryo-EM structure; Ams1-linker-Nbr1(53-180)-MBP fusion protein purified from S. pombe; 2.4 Å, D2 symmetry
[2] = biological target: B1; test: as above; settings: both partners purified

| Binder | stoichiometry N [1] | stoichiometry N [2] |
| --- | --- | --- |
| B1 | 4 | – |
| B2 | – | 4 Nbr1-ZZ1 molecules per Ams1 tetramer |
